Results taken from patent publication US20250304636A1 (H LEE MOFFITT CANCER CENTER AND RESEARCH INSTITUTE, published 2025).

Target: T1, Syk (UniProt P43405 1-635, limits assumed)
T1 construct: also called Syk kinase; pcDNA3-Syk
Experiment: co-immunoprecipitation from co-transfected AD293 cells
Experimental: AD293 cells (a cell line derived from HEK293 with improved cell adherence and plaque formation, Agilent) were washed with Dulbecco's PBS (DPBS), and resuspended in 2.0 μg/ml of anti-human TREM-1 antibody (R&D Systems) on ice for 30 min. After washing with DPBS, cells were incubated with 1.0 μg/ml of Affinipure rabbit anti-mouse IgG (H+L) Ab (Jackson Immunoresearch) at 37° C. for 10 min. Cells were then scraped off the plates and followed by centrifugation at 400 g for 10 minutes at 4° C. Cells were washed twice with cold 1×DPBS and lysed on ice for 30 min at 4° C. in 1 ml of lysis buffer (1% NP-40, 10 mM Tris, 150 mM NaCl, 0.5 mM phenylmethylsulfonyl fluoride, 10 mM iodoacetamide, 50 mM NaF, 1 mM ethylenediamenetetraacetic acid, 1 mM sodium orthovanadate, 0.25% sodium Deoxycholate, 10 μl Ala-Ala-Phe p-nitroanilide (SIGMA), 10 μl protease cocktail I (SIGMA cat #P2850) and 10 μl protease cocktail II (SIGMA cat #P5726). Cell lysates were centrifuged at 12,000 g at 4° C. for 15 minutes to remove nuclei and cell debris, after which the clarified lysate supernatant was isolated. The protein concentration of the soluble extracts was determined using the Bradford protein assay (Bio-Rad, Hercules, CA, USA) following manufacturer protocol. Western blots were blocked in PBST containing 4% BSA for 1 h and then incubated overnight at 4° C. in primary antibodies. […]

binding result: no binding
B1: wild-type DAP12 (12-kilodalton DNAX activating protein) (other)
chain: IALAVYFLGRLVPRGRGAAEAATRKQRITETESPYQELQGQRSDVYSDLNTQRPYYK
notes: Over-expressed from pcDNA3 in AD293 cells together with pcDNA3-Syk; co-immunoprecipitated from cell lysates; No signal peptide limits are stated; also called WT DAP12; WT
